According to PMC5397176:

Molecular target: Cy3–Cy5 labeled nucleosome containing H3KC36me3 (human) (UniProt Q71DI3)
Experiment: other fluorescence titration

Q: What does the source list for PHF1(2–87) (domain or fragment)?
A: Kd: 20 µM; S1/2 of the PHF1(2–87) titration at constant LexA: 16 µM
